Test results: patent US11202818B2, “Methods and compositions for modulating erythropoiesis” (President and Fellows of Harvard College, priority 2016, dated 2021)
Entries after “also recorded” stand apart in the source; their conditions may differ.

B1: MSP: Macrophage Stimulating Protein, ligand of Mst1r; R&D systems CAT #6244-MS-025 (protein)
chain: MGLWWVTVQPPARRMGWLPLLLLLTQCLGVPGQRSPLNDFQVLRGTELQHLLHAVVPGPWQEDVADAEECAGRCGPLMDCRAFHYNVSSHGCQLLPWTQHSPHTRLRRSGRCDLFQKKDYVRTCIMNNGVGYRGTMATTVGGLPCQAWSHKFPNDHKYTPTLRNGLEENFCRNPDGDPGGPWCYTTDPAVRFQSCGIKSCREAACVWCNGEEYRGAVDRTESGRECQRWDLQHPHQHPFEPGKFLDQGLDDNYCRNPDGSERPWCYTTDPQIEREFCDLPRCGSEAQPRQEATTVSCFRGKGEGYRGTANTTTAGVPCQRWDAQIPHQHRFTPEKYACKDLRENFCRNPDGSEAPWCFTLRPGMRAAFCYQIRRCTDDVRPQDCYHGAGEQYRGTVSKTRKGVQCQRWSAETPHKPQFTFTSEPHAQLEENFCRNPDGDSHGPWCYTMDPRTPFDYCALRRCADDQPPSILDPPDQVQFEKCGKRVDRLDQRRSKLRVVGGHPGNSPWTVSLRNRQGQHFCGGSLVKEQWILTARQCFSSCHMPLTGYEVWLGTLFQNPQHGEPSLQRVPVAKMVCGPSGSQLVLLKLERSVTLNQRVALICLPPEWYVVPPGTKCEIAGWGETKGTGNDTVLNVALLNVISNQECNIKHRGRVRESEMCTEGLLAPVGACEGDYGGPLACFTHNCWVLEGIIIPNRVCARSRWPAVFTRVSVFVDWIHKVMRLG
B2: Wnt5a: Recombinant Human/Mouse Wnt-5a, ligand of Ryk; R&D systems CAT #645-WN-010 (protein)
chain: MAGSAMSSKFFLVALAIFFSFAQVVIEANSWWSLGMNNPVQMSEVYIIGAQPLCSQLAGLSQGQKKLCHLYQDHMQYIGEGAKTGIKECQYQFRHRRWNCSTVDNTSVFGRVMQIGSRETAFTYAVSAAGVVNAMSRACREGELSTCGCSRAARPKDLPRDWLWGGCGDNIDYGYRFAKEFVDARERERIHAKGSYESARILMNLHNNEAGRRTVYNLADVACKCHGVSGSCSLKTCWLQLADFRKVGDALKEKYDSAAAMRLNSRGKLVQVNSRFNSPTTQDLVYIDPSPDYCVRNESTGSLGTQGRLCNKTSEGMDGCELMCCGRGYDQFKTVQTERCHCKFHWCCYVKCKKCTEIVDQFVCK

Columns and labels:
[1] = test system: embryonic day 13.5 fetal liver cells; experiment: Epo-dependent erythroid colony formation (CFU-e/BFU-e) in MethoCult, fetal liver; format: cell-based, mouse
From the text: Here, IL-17ra is expressed in the EEP region of the bBM SPRING plot (FIG. 4, Panel a) and its corresponding P2 subset (FIG. 4, Panel n), and to a lesser extent in the CEP/P1 region, in addition to its expression by non-erythroid cells. Both Ryk and mst1r are expressed more selectively, principally within the CEP/P1 region of the erythroid trajectory (FIG. 4, Panels a and n). Wnt5a, MSP and IL-17a were used to stimulate Ryk, mst1r and IL-17ra respectively, and measured their interaction with Epo, an essential erythroid cytokine, using colony formation assays (FIG. 4, Panel c). Epo concentration in blood ranges from 5-10 mU/ml in the basal state, to 10,000 mU/ml in extremely severe anemia The addition of MSP to FL in the presence of mildly elevated Epo concentrations (50 mU/ml, characteristic of mild anemia) was equivalent to a 10-fold increase in Epo concentration, generating over 2 fold the number of CFUe (day 3 unifocal) colonies. However, in the context of high Epo (>100 mU/ml), the addition of MSP was inhibitory. MSP-mediated inhibition was also seen in earlier FL progenitors and in BM progenitors of all stages. […] In summary, MSP, Wnt5a and IL-17a may provide powerful modulation of pre-ETD erythroid progenitors, in a manner that is highly dependent on their developmental stage and background state of progenitor stimulation (stress v. basal).
In bone marrow (BM), 1117ra was expressed by EEPs/P2 and to a lesser extent by CEPs/P1, in addition to non-erythroid cells. Both Ryk and Mst1r are expressed more selectively, though not exclusively, by EEP and CEP cells (FIG. 15, Panel a, and FIG. 16, Panels a and b). Ryk, Mst1r and IL-17Ra were stimulated with their respective ligands, Wnt5a, MSP and IL-17a, using Epo-dependent erythroid colony formation as readout (FIG. 15, Panels b and c, FIG. 7). Epo concentration in blood varies from ˜10 mU/ml in health, to 10,000 mU/ml in severe anemia. […] By contrast. IL-17a mediated a potentiation of adult BM CFU-e colony formation throughout the Epo dose-response curve, giving rise to 4-fold more colonies at lower Epo (50 mU/ml), and to a ˜50% increase in colony formation when added to maximal levels of Epo (FIG. 15, Panels b. and c).
Growth factor perturbations of erythroid colony formation: CFU-e and BFU-e colony formation assays in MethoCult (M3234 STEMCELL Technologies) were carried out on either freshly isolated bone marrow or on embryonic day 13.5 fetal liver cells from Balb/cJ mice. The following growth factors were tested: MSP/MST1 (R&D systems; CAT #6244-MS-025), Recombinant Human/Mouse Wnt-5a (R&D systems; CAT #645-WN-010) and Recombinant Murine IL17 (IL-17A) (PeproTech; CAT 4210-17). In each experiment, a range of Epo concentrations was tested, with or without added additional growth factors (MSP, Wnt5a or IL-17A) as indicated in FIG. 5 and in Extended Data FIG. 12. In addition to Epo, IL-3 (long/mL) and SCF (50ng/ mL) were added to the MethoCult in the case of BFU-e assays. Each condition was tested in quadruplicates, in at least 2 separate experiments. Colonies were scored on day 3 (for CFU-e), day 4 (for late BFU-e) and on day 7 (for early BFU-e) following staining with diaminobenzidine, to highlight hemoglobin expression.

[2] = test system: freshly isolated bone marrow; experiment: Epo-dependent erythroid colony formation (CFU-e/BFU-e) in MethoCult, bone marrow; format: cell-based, mouse; conditions: BM progenitors of all stages
From the text: Here, IL-17ra is expressed in the EEP region of the bBM SPRING plot (FIG. 4, Panel a) and its corresponding P2 subset (FIG. 4, Panel n), and to a lesser extent in the CEP/P1 region, in addition to its expression by non-erythroid cells. Both Ryk and mst1r are expressed more selectively, principally within the CEP/P1 region of the erythroid trajectory (FIG. 4, Panels a and n). Wnt5a, MSP and IL-17a were used to stimulate Ryk, mst1r and IL-17ra respectively, and measured their interaction with Epo, an essential erythroid cytokine, using colony formation assays (FIG. 4, Panel c). […]
In bone marrow (BM), 1117ra was expressed by EEPs/P2 and to a lesser extent by CEPs/P1, in addition to non-erythroid cells. […] Ryk, Mst1r and IL-17Ra were stimulated with their respective ligands, Wnt5a, MSP and IL-17a, using Epo-dependent erythroid colony formation as readout (FIG. 15, Panels b and c, FIG. 7). […]
Growth factor perturbations of erythroid colony formation: CFU-e and BFU-e colony formation assays in MethoCult (M3234 STEMCELL Technologies) were carried out on either freshly isolated bone marrow or on embryonic day 13.5 fetal liver cells from Balb/cJ mice. […] Colonies were scored on day 3 (for CFU-e), day 4 (for late BFU-e) and on day 7 (for early BFU-e) following staining with diaminobenzidine, to highlight hemoglobin expression.

Row | Molecule | effect on fetal liver erythropoiesis at low erythropoietin ([1]; FL, Epo 50 mU/ml or less) | equivalent increase in Epo concentration ([1]; FL, Epo 50 mU/ml, ligand added) | number of CFUe (day 3 unifocal) colonies generated, fold ([1]; FL, Epo 50 mU/ml, ligand added) | effect on fetal liver erythropoiesis at high Epo ([1]; FL, Epo >100 mU/ml) | effect in earlier FL progenitors ([1]; FL, earlier progenitors (BFU-e)) | effect on erythroid colony formation in other contexts ([1]; contexts other than FL at Epo 50 mU/ml (FL and BM)) | effect on erythroid colony formation in BM [2] | effect on erythroid colony formation in FL ([1]; FL progenitors)
1 | B1 | enhance erythropoiesis | 10 fold | over 2 fold | inhibitory; also recorded: inhibit erythropoiesis | inhibition | inhibitory | inhibition; also recorded: inhibitory effect | 
2 | B2 |  |  |  |  |  |  | consistent and potent inhibitor | consistent and potent inhibitor
